Article PMC10184827

Assays:
[1] = target: human β-actin (cytoplasmic actin, ACTB) purified from budding yeast (human) (UniProt P60709)
[2] = target: human γ-actin (γ1-actin, cytoplasmic actin, ACTG1) purified from budding yeast (human) (UniProt P63261)
[3] = target: rabbit muscle actin (RMA; α-actin) (rabbit) (UniProt P68135)
[4] = target: rabbit muscle actin (RMA; α-actin) (rabbit) (UniProt P68135); assay: TIRF microscopy of single filament polymerization; 1 µM total actin monomers with 10% fluorescently labeled RMA; TIRF buffer (20 mM imidazole pH 7.4, 50 mM KCl, 1 mM MgCl2, 1 mM EGTA, 0.2 mM ATP, 10 mM DTT, 40 mM glucose, 0.25% methylcellulose); monomer addition to growing filaments

Chain of mDia1(FH1-C) (amino acids 571–1255) (O08808 571-1255): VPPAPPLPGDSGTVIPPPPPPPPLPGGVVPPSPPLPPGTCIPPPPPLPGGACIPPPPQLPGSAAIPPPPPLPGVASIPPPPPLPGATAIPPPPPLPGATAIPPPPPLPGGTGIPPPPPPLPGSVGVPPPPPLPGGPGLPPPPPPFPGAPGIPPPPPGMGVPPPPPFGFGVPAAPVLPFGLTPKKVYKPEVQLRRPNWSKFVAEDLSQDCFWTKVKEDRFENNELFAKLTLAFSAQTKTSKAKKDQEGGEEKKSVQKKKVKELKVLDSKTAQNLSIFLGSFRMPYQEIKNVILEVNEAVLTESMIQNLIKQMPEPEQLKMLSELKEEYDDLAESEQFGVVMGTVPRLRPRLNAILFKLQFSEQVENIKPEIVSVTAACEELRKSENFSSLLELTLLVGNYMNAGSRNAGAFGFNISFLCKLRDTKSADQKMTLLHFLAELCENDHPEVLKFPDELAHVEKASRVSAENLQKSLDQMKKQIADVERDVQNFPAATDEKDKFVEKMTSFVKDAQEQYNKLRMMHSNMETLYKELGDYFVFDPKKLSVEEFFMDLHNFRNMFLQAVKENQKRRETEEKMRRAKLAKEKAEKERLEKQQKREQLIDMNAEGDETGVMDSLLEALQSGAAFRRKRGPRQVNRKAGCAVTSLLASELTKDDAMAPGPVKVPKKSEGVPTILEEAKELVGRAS

| Substance | actin filament elongation rate by TIRF microscopy, 1 µM actin with 2 µM PFN1 and 10 nM mDia1(FH1-C) (subunits s^−1 µM^−1) [1] | actin filament elongation rate by TIRF microscopy, 1 µM actin with 2 µM PFN1 and 10 nM mDia1(FH1-C) (subunits s^−1 µM^−1) [2] | actin filament elongation rate by TIRF microscopy, 1 µM actin with 2 µM PFN1 and 10 nM mDia1(FH1-C) (subunits s^−1 µM^−1) [3] | filament elongation rate (subunits s^−1 µM^−1) [4] |
| --- | --- | --- | --- | --- |
| mDia1(FH1-C) (amino acids 571–1255) (from UniProt O08808 571-1255) (domain or fragment) | 59.3 | 61.2 | 73.6 | – |
| rabbit muscle actin (RMA; α-actin) (from UniProt P68135 1-377) (natural protein) | – | – | – | 10 |
